Assay results reported in patent US20210388068A1.

B1: anti-CfaE HuMab 68-90 (antibody, human IgG1, V domains shown)
VH: QVQLQQWGAGLLKPSETLSLTCAVYGGSFSAYYWSWIRQPPGKGLEWIGEINHSGNTNYNPSLESRVTISVDTSKNQVSLKQSSVTAADTAVYYCARNWGPNAFDIWGRGTMVTVSS
VL: DIQMTQSPSSVSASVGDRVTITCRASQDITSWLVWYQHKPGKAPKLLIYAASSLQSGVPSRFSGSGSGTDFTLTISSLQPEDFATYYCQQANIFPYTFGQGTKLEIK
B2: anti-CfaE HuMab 68-48 (antibody, human IgG1, V domains shown)
VH: QVQLQQWGAGLLKPSETLSLTCAVYGGSFSGYSWSWIRQSPGKGLEWIGEIYHSGSTNYNPSLKSRVTISGDTSKNQFSLKLSSVTAADTAVYYCARENLQGYYYYGMDVWGQGTTVTVSS
VL: AIQLTQSPSSLSASVGDRVTITCRASQGISSSLAWYQQKPGKAPKLLIYDASSLESGVPSRFSGSGSGTDFTLTISSLQPEDFATYYCQQFNSYPRTFGQGTKVEIK
B3: anti-CfaE HuMab 68-61 (antibody, human IgG1, V domains shown)
VH: QVQLVQSGAEVKNPGSSVRVSCEASGGTFSSFAISWVRQAPGQGLEWMGRIIPILDIVKYAQRFQGRVTISADKSTSTAYMELSSLRSEGTAVYYCARDDIAGSDFDIWGQGTMVTVSS
VL: DIQMTQSPSSLSASVGDRVTITCRASQGISSWLAWYQQKPEKAPKSLIYAASSLQSGVPSRFSGSGSGTDFTLTISSLQPEDFATYYCQQYTSYPYTFGQGTKLEIK

Experiments:
[1] = target: MBP-CfaE-N Asn127Ala mutant (enterotoxigenic Escherichia coli (ETEC)) (UniProt P25734); test: ELISA on plate-bound MBP-CfaE-N Asn127Ala mutant, OD405
[2] = target: MBP-CfaE-N Arg145Ala mutant (enterotoxigenic Escherichia coli (ETEC)) (UniProt P25734); test: ELISA on plate-bound MBP-CfaE-N Arg145Ala mutant, OD405
[3] = target: MBP-CfaE-N Arg67Ala mutant (enterotoxigenic Escherichia coli (ETEC)) (UniProt P25734); test: ELISA on plate-bound MBP-CfaE-N Arg67Ala mutant, OD405
[4] = target: MBP-CfaE-N Thr91Ala mutant (enterotoxigenic Escherichia coli (ETEC)) (UniProt P25734); test: ELISA on plate-bound MBP-CfaE-N Thr91Ala mutant, OD405

Binder | EC50 (read off the curve) [1] | EC50 (read off the curve) [2] | EC50 (read off the curve) [3] | EC50 (read off the curve) [4]
B1 | 0.01 µg/mL | 0.03 µg/mL | 0.04 µg/mL | 0.02 µg/mL
B2 | – | 0.03 µg/mL | 0.04 µg/mL | –
B3 | – | 0.03 µg/mL | 0.04 µg/mL | –
